Molecular target: T1, Rac1 (61L) binding to POSH-GBD (Homo sapiens, UniProt P63000, Q61L)
T1 construct: His; purchased Cytoskeleton Inc. R6101
Test: Rac1:POSH G-LISA competition (drug discovery application)
Experimental: Active Rho protein (typically 7-15 μg total cell lysate or 1-5 ng of constitutively active recombinant protein) were either added directly to the effector bound G-LISA plate (Rac1 and Cdc42 G-LISAs) or diluted with an equal volume of Binding Buffer (20% PEG 8000, Sigma, St. Louis, Mo.) prior to adding to effector bound plates (RhoA G-LISA). The reactions were incubated for 30 minutes at 4° C. on a microtiter titer plate shaker after which wells were washed once with 200 μl of PBST (PBS pH 7.2, 0.05% Tween-20) and immediately treated with 200 μl of Antigen Presenting Buffer (1% trichloroacetic acid (TCA)) for 2-5 minutes at room temperature. Wells were then washed three times with 200 μl each of PBST and primary antibody is added typically at 1 μg/ml (RhoA specific), 0.25 μg/ml (Rac1 specific), 1 μg/ml (Cdc42 specific) and incubated at room temperature for 45 minutes (incubation at 4° C. gave similar results). Wells are washed three times with 200 μl each of PBST and incubated with appropriate secondary antibody for 45 minutes at room temperature (incubation at 4° C. gave similar results). […] After three washes each of 200 μl PBST the activated Rho proteins are detected using absorbance or luminescence detection as described below. […]

B1: ROCK-GST: RhoA effector ROCK-GBD peptide, negative control inhibitor in Rac1:POSH G-LISA (protein)
chain: EAEQYFSTLYKTQVKELKEEIEEKNRENLKKIQELQNEKETLATQLDLAETKAESEQLARGLLEEQYFELTQESKKAASRNRQEITDKDHTVSRLEEANSMLTKDIEILRRENEELTEKMKKAEEEYKLEKEEEISNLKAAFEKNINTERTLKTQAVNKLAEIMNRKDFKIDRKKANT
modifications: left off: a dimerising Fc or GST
IC50 relative to PAK: approximately 80 times

— US7763418B2, “Detection of Rho proteins” (Cytoskeleton, Inc., priority 2005, dated 2010)
